Measured values as given in publication PMC7979498 (2022).

Experiments:
ROS1 ECD = molecular target: T1, ROS1 ECD (Homo sapiens, UniProt P08922); assay: saturation binding assay
T1 chain: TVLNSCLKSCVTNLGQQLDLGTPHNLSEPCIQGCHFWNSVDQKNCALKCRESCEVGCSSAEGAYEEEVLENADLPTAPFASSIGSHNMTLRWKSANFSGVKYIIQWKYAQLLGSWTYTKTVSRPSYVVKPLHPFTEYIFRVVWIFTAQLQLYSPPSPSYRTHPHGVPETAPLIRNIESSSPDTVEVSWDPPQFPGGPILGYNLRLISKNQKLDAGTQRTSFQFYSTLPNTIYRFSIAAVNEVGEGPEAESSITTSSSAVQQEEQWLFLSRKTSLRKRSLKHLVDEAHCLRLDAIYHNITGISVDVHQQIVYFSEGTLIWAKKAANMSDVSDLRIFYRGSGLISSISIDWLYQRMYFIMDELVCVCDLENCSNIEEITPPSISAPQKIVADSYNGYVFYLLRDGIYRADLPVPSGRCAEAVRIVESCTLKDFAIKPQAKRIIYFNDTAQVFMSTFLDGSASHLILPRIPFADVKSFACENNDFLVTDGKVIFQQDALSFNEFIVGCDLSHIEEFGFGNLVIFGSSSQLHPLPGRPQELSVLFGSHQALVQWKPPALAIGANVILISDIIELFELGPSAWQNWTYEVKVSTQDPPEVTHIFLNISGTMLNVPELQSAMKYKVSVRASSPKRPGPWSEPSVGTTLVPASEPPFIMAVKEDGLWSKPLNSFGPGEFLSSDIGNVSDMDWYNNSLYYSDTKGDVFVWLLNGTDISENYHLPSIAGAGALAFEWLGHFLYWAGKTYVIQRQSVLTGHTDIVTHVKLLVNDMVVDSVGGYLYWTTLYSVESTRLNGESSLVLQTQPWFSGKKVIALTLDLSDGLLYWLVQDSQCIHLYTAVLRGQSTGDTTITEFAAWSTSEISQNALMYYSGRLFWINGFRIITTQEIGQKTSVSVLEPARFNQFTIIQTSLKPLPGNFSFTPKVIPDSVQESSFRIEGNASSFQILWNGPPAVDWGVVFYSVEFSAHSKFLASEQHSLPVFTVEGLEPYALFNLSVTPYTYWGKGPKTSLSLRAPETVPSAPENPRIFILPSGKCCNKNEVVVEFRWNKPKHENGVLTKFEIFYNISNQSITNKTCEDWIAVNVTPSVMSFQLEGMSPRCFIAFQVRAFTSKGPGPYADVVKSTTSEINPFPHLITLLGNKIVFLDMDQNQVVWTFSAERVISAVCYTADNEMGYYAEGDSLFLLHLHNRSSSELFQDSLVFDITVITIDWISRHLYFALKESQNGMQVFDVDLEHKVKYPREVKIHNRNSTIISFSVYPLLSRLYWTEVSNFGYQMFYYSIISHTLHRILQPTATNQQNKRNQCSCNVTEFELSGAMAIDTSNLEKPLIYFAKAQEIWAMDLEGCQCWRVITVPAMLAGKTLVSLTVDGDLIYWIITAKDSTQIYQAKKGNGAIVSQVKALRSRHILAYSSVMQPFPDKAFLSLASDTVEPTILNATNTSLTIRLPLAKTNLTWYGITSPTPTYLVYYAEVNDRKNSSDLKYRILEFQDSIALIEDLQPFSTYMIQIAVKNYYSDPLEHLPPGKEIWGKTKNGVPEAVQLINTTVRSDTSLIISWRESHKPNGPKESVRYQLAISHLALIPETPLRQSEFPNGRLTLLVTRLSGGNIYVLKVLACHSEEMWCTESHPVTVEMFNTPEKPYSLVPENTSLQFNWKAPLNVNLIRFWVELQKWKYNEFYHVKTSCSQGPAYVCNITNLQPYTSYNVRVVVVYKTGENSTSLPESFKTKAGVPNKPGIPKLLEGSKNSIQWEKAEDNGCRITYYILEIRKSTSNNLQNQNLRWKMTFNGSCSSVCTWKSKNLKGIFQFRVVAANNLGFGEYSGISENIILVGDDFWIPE

ROS1 = molecular target: T2, ROS1 (Homo sapiens, UniProt P08922); assay: saturation binding assay
T2 chain: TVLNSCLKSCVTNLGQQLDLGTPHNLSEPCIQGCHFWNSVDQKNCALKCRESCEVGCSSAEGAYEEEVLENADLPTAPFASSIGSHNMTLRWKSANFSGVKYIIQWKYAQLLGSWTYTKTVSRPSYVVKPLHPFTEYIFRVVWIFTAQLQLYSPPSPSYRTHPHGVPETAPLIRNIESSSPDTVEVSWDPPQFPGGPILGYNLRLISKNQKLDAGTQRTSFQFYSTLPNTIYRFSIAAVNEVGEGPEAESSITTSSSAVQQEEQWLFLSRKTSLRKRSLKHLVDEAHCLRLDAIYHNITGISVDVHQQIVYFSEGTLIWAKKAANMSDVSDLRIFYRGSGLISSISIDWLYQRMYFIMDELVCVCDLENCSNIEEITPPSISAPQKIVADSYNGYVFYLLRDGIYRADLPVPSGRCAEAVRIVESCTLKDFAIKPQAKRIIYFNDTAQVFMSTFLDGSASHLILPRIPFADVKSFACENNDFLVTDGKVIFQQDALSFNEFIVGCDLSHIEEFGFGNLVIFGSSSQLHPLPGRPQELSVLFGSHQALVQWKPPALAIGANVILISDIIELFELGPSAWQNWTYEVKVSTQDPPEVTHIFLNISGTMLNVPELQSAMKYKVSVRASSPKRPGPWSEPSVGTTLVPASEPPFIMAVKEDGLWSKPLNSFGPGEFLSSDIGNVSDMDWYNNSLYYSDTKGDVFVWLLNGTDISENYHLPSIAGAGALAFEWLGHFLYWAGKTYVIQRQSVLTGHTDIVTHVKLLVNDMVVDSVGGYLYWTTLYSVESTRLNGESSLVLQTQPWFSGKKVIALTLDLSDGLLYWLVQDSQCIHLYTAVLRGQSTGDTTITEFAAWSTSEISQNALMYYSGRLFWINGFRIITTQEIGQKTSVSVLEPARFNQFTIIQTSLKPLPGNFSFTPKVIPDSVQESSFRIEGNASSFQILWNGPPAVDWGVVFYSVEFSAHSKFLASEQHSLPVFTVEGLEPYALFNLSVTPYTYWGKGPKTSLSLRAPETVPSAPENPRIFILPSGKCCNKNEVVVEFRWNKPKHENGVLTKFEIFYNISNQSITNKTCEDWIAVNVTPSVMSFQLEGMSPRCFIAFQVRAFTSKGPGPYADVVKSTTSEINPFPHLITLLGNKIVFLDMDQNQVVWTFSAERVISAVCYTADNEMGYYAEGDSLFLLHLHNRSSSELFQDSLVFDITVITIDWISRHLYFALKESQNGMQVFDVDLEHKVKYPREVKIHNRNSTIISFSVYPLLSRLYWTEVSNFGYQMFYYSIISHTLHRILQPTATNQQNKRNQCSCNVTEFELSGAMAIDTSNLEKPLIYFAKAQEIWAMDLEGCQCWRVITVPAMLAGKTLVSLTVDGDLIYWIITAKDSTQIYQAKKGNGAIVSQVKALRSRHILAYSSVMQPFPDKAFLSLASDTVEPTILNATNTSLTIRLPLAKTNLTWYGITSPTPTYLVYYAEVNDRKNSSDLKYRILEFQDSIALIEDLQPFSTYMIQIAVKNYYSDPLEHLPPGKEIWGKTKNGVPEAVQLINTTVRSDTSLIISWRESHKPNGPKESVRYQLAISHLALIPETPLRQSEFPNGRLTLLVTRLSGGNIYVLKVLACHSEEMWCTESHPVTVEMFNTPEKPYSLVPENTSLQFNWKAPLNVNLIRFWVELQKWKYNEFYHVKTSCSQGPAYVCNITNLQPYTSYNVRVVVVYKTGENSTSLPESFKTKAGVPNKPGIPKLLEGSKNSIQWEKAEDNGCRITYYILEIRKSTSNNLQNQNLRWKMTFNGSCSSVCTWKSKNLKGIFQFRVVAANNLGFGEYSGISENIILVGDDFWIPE

Kd (ROS1 ECD): 28.5 nM | Kd (ROS1): 33.5 nM
B1: RNase7 (protein)
chain: KPKGMTSSQWFKIQHMQPSPQACNSAMKNINKHTKRCKDLNTFLHEPFSSVAATCQTPKIACKNGDKNCHQSHGAVSLTMCKLTSGKHPNCRYKEKRQNKSYVVACKPPQKKDSQQFHLVPVHLDRVL
